In patent publication US9526766B2, “Potentiation of antibiotic treatment with a protein-lipid complex” (priority 2012, dated 2016):
Converted amounts (≈) assume the structure as drawn. Where two headings read alike, the source gives them in different places.

Columns and labels:
[1] = system: MRSA strain NRS 384; assay: Methicillin resistance development under stepwise methicillin exposure; format: cell-based; settings: Staphylococcus aureus, read-out: Methicillin MIC after adaptation, NRS 384
Excerpt: ALAFAC and Methicillin Resistance Development. Experiments were designed to test the impact of ALAFAC on the adaptation of MRSA to methicillin in liquid cultures, and to test ALAFAC's potential to inhibit resistance increase during antibiotic pressure. […]

[2] = system: Staphylococci; assay: Gentamicin, Vancomycin FL and Bocillin FL binding; format: cell-based, Staphylococcus aureus; settings: for Cell-associated level of vancomycin on addition of ALAFAC / Bocillin FL association with cells on addition of ALAFAC: 100 μg/mL ALAFAC
Protocol: Gentamicin, Vancomycin and Bocillin FL Binding. We adapted a previously described method using AlexaFluor 488-gentamicin, vancomycin FL and Bocillin FL as reporter antibiotics to investigate association of these compounds with the staphylococcal cells. In brief, indicated strains were grown in TSB to an OD600nm of 0.5. Antibiotics were added at the following concentrations: Gentamicin at 50 μg/mL, Vancomycin FL at 20 μg/mL, Bocillin FL at 25 μg/mL alone, or in combination with ALAFAC at 100 μg/mL.
After 30 minutes, cultures were centrifuged at 9,000×g for 4 min, washed four times with PBS, and resuspended in a small volume of PBS. Cells were lysed by 5 successive freeze thaw cycles at −80° C. and 37° C. for 5 min each as described. The Bocillin FL, vancomycin FL or Alexa Fluor 488-gentamicin concentration was determined by measuring the amount of fluorescent material in a Synergy 2 microplate reader (Biotek) using excitation and emission wavelengths set at 485 and 530 nm, respectively. Linearity was obtained between 2 and 800 μg/mL; (R^2=0.9983) for AlexaFluor 488-gentamicin, between 0.5 and 100 μg/mL; (R^2=0.9928) for Bocillin FL, and between 0.25 and 50 μg/mL; (R^2=0.9919) for Vancomycin FL, with binding expressed as a ratio of the fluorescence of each sample divided with the sample protein content, determined by the 280/260 nm ratio using the using a BioTek Synergy 2 plate reader with the Take3 microdrop addition (Biotek)

[3] = system: Staphylococci; assay: Bactericidal activity of ALAFAC alone; format: cell-based
[4] = system: Escherichia coli; assay: Bactericidal activity of ALAFAC alone; format: cell-based
[5] = system: Pseudomonas aeruginosa; settings: concentrations up to 5 mg/ml; cited from earlier work
[6] = system: healthy human cells; settings: cited from earlier work

## COc1cccc(OC)c1C(=O)N[C@@H]1C(=O)N2[C@@H]1SC(C)(C)[C@@H]2C(=O)O [Methicillin, methicillin]
[1]; 8 cycles with increasing methicillin, no ALAFAC
  MIC: 512 µg/mL (≈ 1350 µM)
[1]; 10 cycles in methicillin plus ALAFAC 100 μg/mL (6 μM), MIC tested without ALAFAC
  MIC: 64 µg/mL

B1: ALAFAC: non-covalent complex of alpha-lactalbumin and fatty acid (oleic acid); labeled HAMLET or HL in drawings and tables (protein, UniProt P00709 20-142, looked up)
Alpha-lactalbumin: KQFTKCELSQLLKDIDGYGGIALPELICTMFHTSGYDTQAIVENNESTEYGLFQISNKLWCKSSQVPQSRNICDISCDKFLDDDITDDIMCAKKILDIKGIDYWLAHKALCTEKLEQWLCEKL
modifications: complexed with oleic acid
[2]; NRS384, ALAFAC 100 μg/mL, P=0.09
  Increase of cell-associated level of gentamicin by ALAFAC: 2.6 fold
[2]; VISA strain NRS 1
  Cell-associated level of vancomycin on addition of ALAFAC: significantly increased
[2]; methicillin-resistant strain NRS 384
  Bocillin FL association with cells on addition of ALAFAC: significantly increased
[2]; methicillin-sensitive strain
  Bocillin FL association with cells on addition of ALAFAC: no significant increase
[2]; vancomycin-sensitive strain
  Cell-associated level of vancomycin on addition of ALAFAC: did not increase
[3]
  Concentration of ALAFAC not triggering death: exceeding 1,000 μg/ml
[4]
  Concentration of ALAFAC not triggering death: exceeding 1,000 μg/ml
[5]
  Bactericidal activity: no detectable activity
[6]
  Toxicity: no toxicity
